Laboratory results as given in publication PMC6737378, “Molecular Basis for ATP-Hydrolysis-Driven DNA Translocation by the CMG Helicase of the Eukaryotic Replisome” (Cell Reports, 2019).

B1: Saccharomyces cerevisiae Csm3-Tof1 complex (complex, S. cerevisiae)
chain 1: MDQDFDSLLLGFNDSDSVQKDPTVPNGLDGSVVDPTIADPTAITARKRRPQVKLTAEKLLSDKGLPYVLKNAHKRIRISSKKNSYDNLSNIIQFYQLWAHELFPKAKFKDFMKICQTVGKTDPVLREYRVSLFRDEMGMSFDVGTRETGQDLERQSPMVEEHVTSAEERPIVADSFAQDKRNVNNVDYDNDEDDDIYHLSYRNRRGRVLDERGNNETVLNNVVPPKEDLDALLKTFRVQGPVGLEENEKKLLLGWLDAHRKMEKGSMTEEDVQLIQSLEEWEMNDIEGQHTHYDLLPGGDEFGVDQDELDAMKEMGF
chain 2: MSADLQQGTTNAADFSLTVLRARIALLATAIGGPDYTSQIDPPPYKLGDDCLACLKDLKRWFKLVDDQQKRWDVAMAVAEYRILTDDLLPILIDWENKCSLAAKLAKNNPDHEEFRNKAYYDKIALNCLQLLVLMTWPLIVTEQSSSNQITLYGELKKHQLVYKKTILSMESGKVLRAAIRLALDVIKIDRLSRTPRDNMVLKLVLNFFRNVIAIEPGEFTINTKKSMPKKGITSIDTLPPNVSMDDISLNTVISSFHKNKVFGFLLTLTSSLSKEFDQDFINIPLLEIMFYFTKDVNQELLFPRQFETGTHSKVVNKNESSSANNIVTSAGFELSKLLQKEHQMRKNVIKHTSARHSRFGGLLSIQTPDKTRLTVSGSQALVDEKIALQKLDDSKKWNKRIIKKHQSVAAEGLPNSLLNSQTGKAIFFTESNGKHFKEFINNFIDSGFNILLHSVTNYFTTEQDRMVTLEQVEYLLFFAWFVKYQLLRSKIDNSADIKQVSEALKEVTFILVSSLLRSAYDLKNWTVTHAGMIAFNELLNLVSRTKAAQEEDSTDIEFIVSRLFSDERIQLLSNLPKIGSKYSLQFMKSCIELTHSVLKVLEQYSDDKTLVIEGKSRRQKKFNISEGDITKLIEEENVDRDEALDILTSSLRSIEVNFQKVQANYMTEPVIETYINFLERFRELEDDSIKKVFSFFHRVFVQAKEQALLFRFDLIILLREMLSPDGLDRMSRSRKYVSQFSDYFLARLKKRLKKSPAWFVGLLFPPLHNSEVGFYQRYGEYNVLNNESMYAAPASQFKPIPDEEALPPSILLDMKYGVLVSTLLDDGKTELLDQLLKHITHTLDIFKSWLTVNVNAGKETVNPPNEYFTLTGVLNNDPIFKDKDYRALLLLIGYSIPRKINEPCFLPGTVEVSDLTVSCELVKKYLSTPFETPNGLPSSSYLLRVRSEKDSFSHNEQDGWEGDDDYDYNDPYIVPDDQILSKSDAAYFKDLDNNASDKLKGTKFSKGIARSKKKDKRKRRKGEAKTNLPMFGDQDDERPQTVRERHGVFSKEFISDSEDDEDLMNPIFFENETYMRWLLDKNNGQLTEDRYIQFAKFAAERMNNGGVVTGDYTSLFGGSIPSIESIRATESSSFAPDKSLISLASHVASEMSIFDVNNNNNNQLSDDDVNSESRNSLGSSQPSNSQNMFQSEVYSRKESTKRSLEASAADESDEDEEAIRLFGKKSRVVLSQGDSDD
notes: Csm3, S. cerevisiae, from strain yAE48 (Yeeles et al., 2017); Tof1, S. cerevisiae, from strain yAE48 (Yeeles et al., 2017); Construct in Yeeles et al., 2017; also called ScCsm3/Tof1
B2: Saccharomyces cerevisiae Mrc1 (natural protein, S. cerevisiae, UniProt P25588 1-1096, looked up)
chain: MDDALHALSSLTAKKRTTTYKKVAVPILDENDNTNGNGPNDIDNPPELTGNGFLFANATLNRVKNRLEGKKAPEQNHNNGKDRSENSLPTQLISNLYDGGEELEKSEVKDNSYSEKNVSSSFTQTQRIPVSIQQDKVFNVPIHSVNDGKPTQLIKEDGLVNETSQALKTPLTTGRPGATQRIDSSGATSQTQPIKSIEPQSQIITTSSNHSNALSPKIPIIPTELIGTSPLFQSIQNRGPDTQMDVPPQTAHDEDKTQAIGIPQATHQEQKTQIDTVAQTLQDEVPHTLKIREIQSELASEDSKREKARNVEYKKPQKPIPTKKFFSKESFLADFDDSSSNEDDDIKLENAHPKPVQNDDELHENKSVELNLTDETRINEKRVPLLSSYANNLKREIDSSKCITLDLDSDSDEYGDDDMDSIKLSKDESVLPISQLSKATILNLKARLSKQNQKLSQRPNKSKDPKVDHNVLLNTLRKASRKQILDHQKEVIETKGLKLEDMAKEKEIVENLLEQEILRNKRIRQKEKRREKLEENDFQLNAHDSGSDSGSESSGFALSGNEIADYESSGSENDNRRESDSEKEDDEIILKQKKSHHVKHIINESDSDTEVEAKPKEKADESLPKRIAINLGHYGDNIGEDTDKFQETNVLDTQNIEEVMAERNTIENEVKDDVYVNEEADEAIRRQLIDKEKLQLKQKEKEHEAKIKELKKRGVTNFFEMEAEESEDEWHGIGGADGEGSDDYDSDLEKMIDDYSKNNFNPHEIREMLAAENKEMDIKMINKILYDIKNGGFRNKRAKNSLELELSDDDEDDVLQQYRLKRRELMRKRRLEIGDDAKLVKNPKSSAFFESMVEDIIEYKNPFGAEEEYNLDITSTATDLDTQDNSINVGDNTGNNEQKPVDQKNKKVIISEDFVQKSLSFLKSNNYEDFETDKELSRIQHGNDEAIEDLYTLKQNSSIKSFTNSQTDSTTSKTVNTIIDLEKRPEDEDEVENGDTSLVGVFKHPSIIKSFASRTDINDKFKEGNKTVKILKSYKTVGSSKASITYMGKTRKLIAPKRKTEGSHRYHHDHHNKKMKMKTKTKSNKLFESGQDSFDN
notes: Mrc1, S. cerevisiae, from strain yJY32 (Yeeles et al., 2017); Construct in Yeeles et al., 2017; also called ScMrc1; FLAG-Mrc1; source: S. cerevisiae strain yJY32, purified (anti-FLAG M2 agarose, MonoQ)
B3: Saccharomyces cerevisiae Ctf4 trimer (natural protein, S. cerevisiae, UniProt Q01454 1-927, looked up)
chain: MVSVIDKLVFDFGGKTLVSLAPDNNTLCVANKNGLTKILKTNNPEEEPETLDSSKLVSSIKCYSNSHFLMTTMQGDALRYNIDSSQEELLARFALPLRDCCVIHSGKMAVFGGDDLELILLELDDETHKKHAIKIDEQVSQISYNSQMNILAVSMINGKVQIFSLTSTIPNKVHELNDYIVANSYDDTHRDKILSNMMDDIDKDNDNDLSETADPDENNVADPEFCAANRICTRVAWHPKGLHFALPCADDTVKIFSIKGYSLQKTLSTNLSSTKAHFIDLQFDPLRGTYIAAVDLNNKLTVWNWETSEIHYTREFKRKITNIAWKIQADSKTLDLVLGTWSGSIAIVQNLAESVVSNIPDQSVAESSTKHGLFVDSESDLENLEGNDDINKSDKLFSDITQEANAEDVFTQTHDGPSGLSEKRKYNFEDEEDFIDDDDGAGYISGKKPHNEHSYSRVHKTHSFPISLANTGKFRYMPFSPAGTPFGFTDRRYLTMNEVGYVSTVKNSEQYSITVSFFDVGRFREYHFEDLFGYDLCFLNEKGTLFGQSKTGQIQYRPHDSIHSNWTKIIPLQAGERITSVAATPVRVIVGTSLGYFRSFNQFGVPFAVEKTSPIVALTAQNYRVFSVHYSQFHGLSYSLSELGTSSKRYYKRECPLPMSLPNINSDMKKDANLDYYNFNPMGIKSLFFSSYGDPCIFGSDNTLLLLSKWRSPEESKWLPILDSNMEIWKMSGGKETTDIHVWPLALAYDTLNCILVKGKHIWPEFPLPLPSEMEIRMPVFVKSKLLEENKAILNKKNEIGADTEAEEGEEDKEIQIPVSMAAEEEYLRSKVLSELLTDTLENDGEMYGNENEVLAALNGAYDKALLRLFASACSDQNVEKALSLAHELKQDRALTAAVKISERAELPSLVKKINNIREARYEQQLK
notes: Ctf4, S. cerevisiae, expression plasmids of Gambus et al., 2009; Called a trimer in the methods; Construct in Gambus et al., 2009; also called ScCtf4; source: E. coli BL21 (DE3), purified (Ni-NTA, MonoQ, Superdex 200)

How the values were obtained:
[1] = system: T1, Drosophila CMG (Cdc45-MCM-GINS helicase; DmCMG); assay: cryo-EM structure; format: binding, Drosophila melanogaster; details: DNA fork bound, 5 mM ATP elution buffer, 2 mM Mg(OAc)2, pH 7.6; bipartite MCM inter-protomer ATPase sites; states 1A, 1B, 2A, 2B at 3.70-4.46 Å; ADP at loosened interfaces, arising during ATP turnover
T1 construct: gene Mcm2; with Cell division control protein 45; DNA replication complex GINS protein PSF1; DNA replication complex GINS protein PSF2; DNA replication complex GINS protein PSF3; DNA replication complex GINS protein SLD5
Text: cryo-EM structure on Drosophila CMG (Cdc45-MCM-GINS helicase; DmCMG) | ATP at inter-protomer interfaces is shown in red.

[2] = biological target: T2, Saccharomyces cerevisiae CMG helicase (Cdc45-MCM-GINS) (S. cerevisiae, UniProt P29469 1-868; P24279 1-971; P30665 1-933; P29496 1-775; P53091 1-1017; P38132 …); assay: DNA fork-affinity purification with silver-stained gel and negative-stain EM 2D averaging; desthiobiotin DNA fork on streptavidin magnetic beads; 250 nM CMG mixed with 350 nM Mrc1 + Csm3-Tof1, 2 mM ATPγS, then 80 nM Polε; Protein Binding Buffer, 30°C; eluted with biotin; dropouts without Mrc1 or Csm3-Tof1; parallel experiment without Polε on an M.HpaII-labeled fork; details: both partners purified
T2 construct: Mcm2, S. cerevisiae, subunit of the CMG from strain yJCZ3 (Zhou et al., 2017); Mcm3, S. cerevisiae, subunit of the CMG from strain yJCZ3; Mcm4, S. cerevisiae, subunit of the CMG from strain yJCZ3; Mcm5, S. cerevisiae, subunit of the CMG from strain yJCZ3; Mcm6, S. cerevisiae, subunit of the CMG from strain yJCZ3; Mcm7, S. cerevisiae, subunit of the CMG from strain yJCZ3; Cdc45, S. cerevisiae, …

[3] = biological target: B1; assay: DNA-affinity purification; desthiobiotin fork or blunt duplex DNA on streptavidin magnetic beads; 350 nM Mrc1, 350 nM Csm3-Tof1 or 350 nM MCT pre-incubated on ice; Protein Binding Buffer, 30°C; eluted with biotin; details: both partners purified
[4] = biological target: T2, Saccharomyces cerevisiae CMG helicase …; assay: pull-down + other: negative-stain EM; 250 nM CMG held on Calmodulin Affinity Resin, 500 nM Ctf4 added, 1 mM ATPγS, 30°C; eluted with EDTA/EGTA, cross-linked with 0.01% glutaraldehyde and imaged; details: both partners purified

Molecule: Nc1ncnc2c1ncn2[C@@H]1O[C@H](COP(=O)(O)OP(=O)(O)O)[C@@H](O)[C@H]1O [ADP]
cryo-EM structure [1]: The C-terminal subunit in the spiral is ADP bound as are the non-engaged seam subunits.

Molecule: B1
binding result [2]: binds

Molecule: B2
binding result [3]: binds | binding result [2]: binds

Molecule: B3
binding result [4]: binds
